In patent US20240100134:

Tests used:
[1] = tested on: recombinant human plasminogen (not fused to Fc, wild-type)
[2] = tested on: recombinant plasminogen-linker-Fc fusion (human plasminogen, QA linker GQAGQAS, Fc)
Sequence of recombinant plasminogen-linker-Fc fusion (human plasminogen, QA linker GQAGQAS, Fc) (chain, as listed by the source): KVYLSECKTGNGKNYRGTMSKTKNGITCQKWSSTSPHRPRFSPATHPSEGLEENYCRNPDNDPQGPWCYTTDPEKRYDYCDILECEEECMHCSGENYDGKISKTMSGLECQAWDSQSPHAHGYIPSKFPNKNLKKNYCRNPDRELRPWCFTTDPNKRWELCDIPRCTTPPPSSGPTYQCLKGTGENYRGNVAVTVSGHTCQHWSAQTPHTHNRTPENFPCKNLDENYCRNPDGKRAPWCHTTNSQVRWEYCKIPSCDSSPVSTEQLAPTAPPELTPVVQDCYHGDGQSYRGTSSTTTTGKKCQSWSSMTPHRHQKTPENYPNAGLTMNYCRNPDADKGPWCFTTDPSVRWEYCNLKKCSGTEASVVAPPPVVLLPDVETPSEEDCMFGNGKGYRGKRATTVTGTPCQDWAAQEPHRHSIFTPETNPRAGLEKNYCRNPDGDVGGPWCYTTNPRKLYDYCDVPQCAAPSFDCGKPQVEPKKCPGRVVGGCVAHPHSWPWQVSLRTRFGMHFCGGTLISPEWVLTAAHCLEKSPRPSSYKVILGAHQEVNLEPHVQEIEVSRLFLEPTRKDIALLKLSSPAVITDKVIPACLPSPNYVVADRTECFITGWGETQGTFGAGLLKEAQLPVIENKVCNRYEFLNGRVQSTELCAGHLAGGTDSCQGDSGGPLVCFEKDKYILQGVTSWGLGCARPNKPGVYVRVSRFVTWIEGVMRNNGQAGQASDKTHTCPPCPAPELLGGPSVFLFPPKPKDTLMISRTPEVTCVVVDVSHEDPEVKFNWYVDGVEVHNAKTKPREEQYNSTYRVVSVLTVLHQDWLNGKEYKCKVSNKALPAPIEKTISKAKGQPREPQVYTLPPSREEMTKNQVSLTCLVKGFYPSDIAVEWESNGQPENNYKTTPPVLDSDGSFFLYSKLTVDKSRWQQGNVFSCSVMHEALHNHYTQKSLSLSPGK

Sequence of recombinant human plasminogen (not fused to Fc, wild-type) (chain, as listed by the source): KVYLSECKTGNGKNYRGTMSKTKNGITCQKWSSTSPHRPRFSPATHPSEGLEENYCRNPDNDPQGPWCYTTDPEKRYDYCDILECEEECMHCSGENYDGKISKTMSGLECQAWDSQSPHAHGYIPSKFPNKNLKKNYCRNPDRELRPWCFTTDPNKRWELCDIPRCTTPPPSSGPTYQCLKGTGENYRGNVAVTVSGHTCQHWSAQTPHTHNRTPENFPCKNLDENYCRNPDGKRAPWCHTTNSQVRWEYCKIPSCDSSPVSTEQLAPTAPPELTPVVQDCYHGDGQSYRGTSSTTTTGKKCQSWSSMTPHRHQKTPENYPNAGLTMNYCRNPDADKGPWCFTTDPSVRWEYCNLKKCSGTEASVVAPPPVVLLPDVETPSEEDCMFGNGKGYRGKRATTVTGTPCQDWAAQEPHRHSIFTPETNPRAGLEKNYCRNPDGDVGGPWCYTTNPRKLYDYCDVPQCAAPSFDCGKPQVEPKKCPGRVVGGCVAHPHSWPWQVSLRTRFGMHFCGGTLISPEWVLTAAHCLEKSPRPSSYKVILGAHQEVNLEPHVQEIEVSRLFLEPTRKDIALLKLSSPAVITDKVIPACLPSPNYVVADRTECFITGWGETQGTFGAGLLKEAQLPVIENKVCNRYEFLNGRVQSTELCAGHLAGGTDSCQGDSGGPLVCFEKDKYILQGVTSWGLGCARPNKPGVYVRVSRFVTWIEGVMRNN

urokinase-type plasminogen activator
Michelis-Menten analysis of activation (KM and Vmax), 10 mM EACA [1]: the kinetics of rPlg and rPlg-Fc activation are similar (as indicated by the KM and Vmax)
activation measured by the hydrolysis of plasmin fluorogenic substrate H-Ala-Phe-Lys-AMC [1]: In the presence of tPA or uPA, comparable hydrolytic activity for rPlg and rPlg-Fc is observed
Michelis-Menten analysis of activation (KM and Vmax), 10 mM EACA [2]: the kinetics of rPlg and rPlg-Fc activation are similar (as indicated by the KM and Vmax)
activation measured by the hydrolysis of plasmin fluorogenic substrate H-Ala-Phe-Lys-AMC [2]: In the presence of tPA or uPA, comparable hydrolytic activity for rPlg and rPlg-Fc is observed
